The record followed here is patent US20060286609A1 (BIOCHECK, published 2006).

Experiment [1] addresses Human Id1: Histidine (human) (UniProt P41134). In words: ELISA, coated antigen, Ab 0.025 ug/ml. For orientation: ELISA stands for enzyme-linked immunosorbent assay.
The target is the same in experiment [2]. In words: ELISA, coated antigen, Ab 0.050 ug/ml.
Experiment [3] concerns the target T1, Mouse Id4: Histidine (mouse, UniProt P41139 1-161, limits assumed).
T1 construct: E. coli fusion protein (vector pGW07); also called m-Id4: His; not shown: His-tag
T1 sequence (looked up): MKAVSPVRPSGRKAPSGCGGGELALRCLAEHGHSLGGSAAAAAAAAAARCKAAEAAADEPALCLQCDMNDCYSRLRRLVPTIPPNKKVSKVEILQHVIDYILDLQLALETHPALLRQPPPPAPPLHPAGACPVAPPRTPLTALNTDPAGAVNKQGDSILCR
In words: ELISA, coated antigen, Ab 0.050 ug/ml.

Experiment [4] addresses T2, Human Id4: Histidine (human, UniProt P47928 1-161, limits assumed).
T2 construct: E. coli fusion protein (vector pGW07); also called h-Id4: His; not shown: His-tag
T2 sequence (looked up): T1 sequence (looked up) with L125H, A130T, V133A
Briefly: ELISA, coated antigen, Ab 0.050 ug/ml.

The target in experiment [5] is T3, Mouse Id1: Histidine (mouse, UniProt P20067-2 1-148).
T3 construct: E. coli fusion protein (vector pGW07); also called m-Id1-His; not shown: His-tag
T3 sequence: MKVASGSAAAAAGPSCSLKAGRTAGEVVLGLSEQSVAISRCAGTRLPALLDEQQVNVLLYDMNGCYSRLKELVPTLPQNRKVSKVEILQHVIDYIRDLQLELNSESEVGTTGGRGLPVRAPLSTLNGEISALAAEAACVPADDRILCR
In words: ELISA, coated antigen, Ab 0.050 ug/ml.

Experiment [6] has as its target T4, Mouse Id2: Histidine (mouse, UniProt P41136 1-134, limits assumed).
T4 construct: E. coli fusion protein (vector pGW07); also called m-Id2: His; not shown: His-tag
T4 sequence (looked up): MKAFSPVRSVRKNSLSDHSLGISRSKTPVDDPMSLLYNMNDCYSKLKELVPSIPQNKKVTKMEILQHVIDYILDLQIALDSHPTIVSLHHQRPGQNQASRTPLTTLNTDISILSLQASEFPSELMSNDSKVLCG
In words: ELISA, coated antigen, Ab 0.050 ug/ml.

Experiment [7] concerns the target T5, Human Id2: Histidine (human, UniProt Q02363 1-134, limits assumed).
T5 construct: E. coli fusion protein (vector pGW07); also called h-Id2: His; not shown: His-tag
T5 sequence (looked up): T4 sequence (looked up) with T60S, V131A
Briefly: ELISA, coated antigen, Ab 0.050 ug/ml.

Experiment [8] addresses T6, Mouse Id3: Histidine (mouse, UniProt P41133 1-119, limits assumed).
T6 construct: E. coli fusion protein (vector pGW07); also called m-Id3: His; not shown: His-tag
T6 sequence (looked up): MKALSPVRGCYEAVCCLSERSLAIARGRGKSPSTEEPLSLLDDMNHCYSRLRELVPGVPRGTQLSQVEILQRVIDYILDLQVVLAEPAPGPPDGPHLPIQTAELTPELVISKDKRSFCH
In words: ELISA, coated antigen, Ab 0.050 ug/ml.

Experiment [9] has as its target T7, Human Id3: Histidine (human, UniProt Q02535 1-119, limits assumed).
T7 construct: E. coli fusion protein (vector pGW07); also called h-Id3: His; not shown: His-tag
T7 sequence (looked up): T6 sequence (looked up) with S31G, S33A, T34A, K112N
Briefly: ELISA, coated antigen, Ab 0.050 ug/ml.

For experiment [10], the target named is Human Id1: Histidine (human) (UniProt P41134). In words: ELISA, coated antigen, Ab 0.100 ug/ml.
Human Id1: Histidine (human), sequence (P41134 whole entry): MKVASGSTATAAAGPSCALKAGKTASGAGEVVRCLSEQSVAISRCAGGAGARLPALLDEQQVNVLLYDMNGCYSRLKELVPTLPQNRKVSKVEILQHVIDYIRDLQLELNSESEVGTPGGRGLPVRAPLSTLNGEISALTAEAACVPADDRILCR
The target is the same in experiment [11]. In words: ELISA, coated antigen, Ab 0.250 ug/ml.
Experiment [12] deals with T1, Mouse Id4: Histidine. In words: ELISA, coated antigen, Ab 0.250 ug/ml.
Experiment [13] addresses T3, Mouse Id1: Histidine. Briefly: ELISA, coated antigen, Ab 0.250 ug/ml.
The target in experiment [14] is Human Id1: Histidine (human) (UniProt P41134). In words: ELISA, coated antigen, Ab 0.500 ug/ml.
For experiment [15] the target is unchanged. Briefly: ELISA, coated antigen, Ab 0.005 ug/ml.
Experiment [16] shares this target. In words: ELISA, coated antigen, Ab 0.010 ug/ml.
Experiment [17] deals with T1, Mouse Id4: Histidine. In words: ELISA, coated antigen, Ab 0.010 ug/ml.
Experiment [18] deals with T2, Human Id4: Histidine. Briefly: ELISA, coated antigen, Ab 0.010 ug/ml.
The target in experiment [19] is T3, Mouse Id1: Histidine. Briefly: ELISA, coated antigen, Ab 0.010 ug/ml.
Experiment [20] addresses T4, Mouse Id2: Histidine. In words: ELISA, coated antigen, Ab 0.010 ug/ml.
Experiment [21] addresses T5, Human Id2: Histidine. Briefly: ELISA, coated antigen, Ab 0.010 ug/ml.
Experiment [22] has as its target T6, Mouse Id3: Histidine. Briefly: ELISA, coated antigen, Ab 0.010 ug/ml.
For experiment [23], the target named is T7, Human Id3: Histidine. Briefly: ELISA, coated antigen, Ab 0.010 ug/ml.
The target of experiment [24] is Human Id1: Histidine (human) (UniProt P41134). In words: ELISA, coated antigen, Ab 0.000 ug/ml (blank, diluent only).

Positions count from the first letter of the chain named.

In the case of “rabbit monoclonal anti-mouse/human Id1, clone #BCH-1/#195-14 (antibody)”, the A450 in experiment [1] is 1.12 A450; in experiment [2], 1.7 A450; with Mouse Id4: Histidine [3], 0.049 A450; in the experiment with Human Id4: Histidine [4], 0.049 A450; with Mouse Id1: Histidine [5], 1.39 A450; with Mouse Id2: Histidine [6] it was 0.054 A450. The A450 in the experiment with Human Id2: Histidine [7] amounted to 0.048 A450; with Mouse Id3: Histidine [8] it was 0.05 A450; with Human Id3: Histidine [9], 0.047 A450; in experiment [10] it was 2.17 A450; in [11], 2.88 A450; with Mouse Id4: Histidine [12], 0.048 A450. Also, the A450 was determined as 2.57 A450 with Mouse Id1: Histidine [13]; 3.02 A450 in experiment [14]; 0.31 A450 in [15]; 0.569 A450 in [16]; 0.045 A450 in the experiment with Mouse Id4: Histidine [17]; 0.046 A450 in the experiment with Human Id4: Histidine [18]. Also, the A450 with Mouse Id1: Histidine [19] stood at 0.424 A450; with Mouse Id2: Histidine [20], 0.048 A450; with Human Id2: Histidine [21], 0.054 A450; with Mouse Id3: Histidine [22] it was 0.047 A450; with Human Id3: Histidine [23] it was 0.048 A450; in experiment [24], 0.05 A450.
Turning to “rabbit monoclonal anti-human Id1, clone #BCH-2/#5-3 (antibody)”, the A450 in [1] was 0.728 A450; in experiment [2] it was 1.22 A450; with Mouse Id4: Histidine [3], 0.048 A450; with Human Id4: Histidine [4] it was 0.052 A450; in the experiment with Mouse Id1: Histidine [5], 0.057 A450; in the experiment with Mouse Id2: Histidine [6], 0.05 A450. Further, the A450 is 0.048 A450 in the experiment with Human Id2: Histidine [7]; 0.052 A450 with Mouse Id3: Histidine [8]; 0.046 A450 with Human Id3: Histidine [9]; 1.86 A450 in experiment [10]; 2.76 A450 in [11]; 0.053 A450 with Mouse Id4: Histidine [12]. The A450 in the experiment with Mouse Id1: Histidine [13] was 0.092 A450; in [14], 3.15 A450; in [15] it was 0.209 A450; in experiment [16], 0.362 A450; with Mouse Id4: Histidine [17] it was 0.043 A450; in the experiment with Human Id4: Histidine [18], 0.045 A450. In addition, the A450 with Mouse Id1: Histidine [19] amounted to 0.068 A450; in the experiment with Mouse Id2: Histidine [20], 0.049 A450; in the experiment with Human Id2: Histidine [21] it was 0.046 A450; in the experiment with Mouse Id3: Histidine [22] it was 0.048 A450; with Human Id3: Histidine [23], 0.044 A450; in [24], 0.052 A450.

B1: rabbit monoclonal anti-mouse Id1, clone #BCH-1/#37-2 (antibody, V domains shown)
VH: QSVEESGGRLVTPGTPLTLTCKVSGFDINSYAMDWFRQAPGKGLEWIGMMSTRGNTYYTSWAKGRFTISKTSSTTVDLKMTSLTTEDTATYFCARGGLWGPGTLVTVSS
VL: RVLTQTASPVSAAVGGTVTINCQASQSVYNGNRLGWYQLKPGQSPKELIHDASTLASGVPSRFRGSGSGTQFTLTINDVQCDDAATYYCVGSYACSTGDCNVFGGGTEVVVK
notes: Rabbit IgG from hybridoma, Protein G purified; also called m Id1 MoAb 37-2; Rabbit Monoclonal Anti-Mouse Id1 (#37-2)
As to B1, the A450 came to 0.073 A450 in experiment [1]; 0.092 A450 in [2]; 0.117 A450 in [10]; 0.187 A450 in [11]; 0.27 A450 in [14]; 0.057 A450 in experiment [15]. The A450 in experiment [16] was determined as 0.056 A450; in experiment [24], 0.051 A450.
